Measured values as given in the nanobody polyreactivity screen of Harvey et al. (2022).

Experiment: yeast display, Sf9 membrane polyspecificity reagent, FACS + sequencing; frameworks hold sequencing errors
How it was run: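 Genes from sorted yeast were amplified by colony PCR, read by MiSeq 2 × 250 sequencing and filtered on CDR length. These cells carried a synthetic nanobody library in Saccharomyces cerevisiae BJ5465 and were sorted by FACS into low and high (top ~1%) gates on anti-HA and streptavidin fluorescence. Polyreactivity is labelled according to the gate of origin.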
In the case of “QVQRVDSGGGLVQAGGSLRLSCAASGRILRDYDRGWYRQAPGKDRELVAAINWSDGSTYYADSVKGRFTISRDNAKNTVYLQMNSLKPEDTAVYYCAASRWRPLERGTTWLHDYWGQGTQVTVSS”, the “polyreactivity (PSR sort gate)” value is reported as “low polyreactivity”.
For “QVQRVDSGGGLVQAGGSLRLSCAASGSIFEWYDMVWYRQAPGTERELVAAITTGGITNYSDSVKARFTISRDNAKNTVYLQMNSLKPEDTAVYYCNADFTVEFDYWGQGTQVTVSS”, the “polyreactivity (PSR sort gate)” value was “low polyreactivity”.
In the case of “QVQRVESGGGIVQAGGSLRLSCAASGFIFRRYAMGWYRQAPGKERELVAAISSSGGRTTYADSVKGRFTISRDNAKNTVYLQMNSLKPEDTAVYYFNADLWPGNHDGYWGQGTQVSVSS”, the “polyreactivity (PSR sort gate)” value is reported as “low polyreactivity”.
In the case of “QVQRVESGGGLVHAAGSRRLSCAASGSIFWPYAMGWYRLAPGKEREFVAPISSSGSRTHYADSVKGRFTISRDTAKNTVYLQMNSLKPEDTAVYYCATDSRVITWYGGVEFDYWGQGTQVTVSS”, the “polyreactivity (PSR sort gate)” value is reported as “low polyreactivity”.
In the case of “QVQRVESGGGLVQAGGRLRLICAAAGYTFDYYAMGWYRQAPGKERELVAAISRSGTRTYYADSVKGRFTISRDNAKNTVYLQMYSLKPEVNAVYYLKKAYYLYAGDYWGQGTQVTVSS”, the “polyreactivity (PSR sort gate)” value is reported as “high polyreactivity”.
With “QVQRVESGGGLVQAGGRLRLSCAASGRTFETNAMGWYRQAPGKERELVAAISRSGGSTRYADSVKGRFTISRDNAKNTVYLQMNSLKPEDTAVYYCAVRVGLGGGYGGQGTQVTVSS” the “polyreactivity (PSR sort gate)” value was “high polyreactivity”.
For “QVQRVESGGGLVQAGGRLRLSCAASGSIFASYDMGWYRQSRGKERELVARITFNAGSTYYADSVKGRFTISRDNAKNTVYLQMNSLKPEDTAVYYCIADYPWEYDYWGEGTQVTVSS”, the “polyreactivity (PSR sort gate)” value was “low polyreactivity”.
For “QVQRVESGGGLVQAGGRLRLSCAASGSIFFSKAMGWYRPAPGKERELVAGIRSGGITNYADSVKGRFTISRDNAKNTVSLQMNSLKPEDTAVYYCAKLKDHGRYAYAFDYWGQGTQVTVSS”, the “polyreactivity (PSR sort gate)” value was “low polyreactivity”.
In the case of “QVQRVESGGGLVQAGGRLRLSCAASGSTFLYNAMGWYRQAPGKERELVATISSGGGSTNYADSVKGRFTNSRDNAKNTVYLPMNSLKPEDTAVYYCAVEGYDSYKDDYWGQGTQVTVSS”, the “polyreactivity (PSR sort gate)” value is reported as “low polyreactivity”.
For “QVQRVESGGGLVQAGGRLRLSSAASGSIFGRYGMGWYRQAPGKDRELVAAITSGTRRNYADSVKGRFTISRDNAKNTVYLQMNSLKPEDTAVYYCNAVRLRGNYEYGYWGLGTQVTVSS”, the “polyreactivity (PSR sort gate)” value was “low polyreactivity”.
For “QVQRVESGGGLVQAGGRLRVSCAASGRTFYIYAMGWYRQAPGKERELVADITSGGSTYYADSVKGRFTISRDNAKNTVYLQMNCLKPEDTAVYYCNAGPHWFYRYGRYDYWGQGTQVTVSS”, the “polyreactivity (PSR sort gate)” value was “low polyreactivity”.
With “QVQRVESGGGLVQAGGSLRLSCAASGFIFYFYAMRWYRQAPGNERELVAAITWSGTDTYYADSVKGRFTISRDNAKNTVYLQMNSLKPEDTAVYYCARSEHSLVSIKVDYWGQGTQVTVSS” the “polyreactivity (PSR sort gate)” value was “low polyreactivity”.
In the case of “QVQRVESGGGLVQAGGSLRLSCAASGFTFSLYGMGWYRPARGKGRELVAAIRSGGSTNYADSVKGRYTISRDNAKNTVYLQMNSLKPEDTAVYYCATDIHSGHNNRDKHDYDYWGQGTQETVSS”, the “polyreactivity (PSR sort gate)” value is reported as “low polyreactivity”.
For “QVQRVESGGGLVQAGGSLRLSCAASGIIFALYAMGWYRQAPGKERELVAAISTSGGRTYYADSVKGRFTISRDNAKNTVYFQMNSLKPEDTAVYYCAAGYPYWYHSRLAFDYWGQGTQVTVSS”, the “polyreactivity (PSR sort gate)” value was “high polyreactivity”.
With “QVQRVESGGGLVQAGGSLRLSCAASGITFKYYGMGWYRRAPGKERELVAAITRSGGSTSYADSVKGRFTISRDNAKNTVYLQMHSLKPEDTAVYYCAAERYVLTWLGIERYYWGQGTQVTVSS” the “polyreactivity (PSR sort gate)” value was “high polyreactivity”.
With “QVQRVESGGGLVQAGGSLRLSCAASGKIFGQYAMGRYRQAPGKEREFVAAITWSGGSTYYADSVKGRFTISRDNAKNTVYLQMNSLKPEDTAVYYCAADYGKTHRYDYDYWGQGTQVTVSS” the “polyreactivity (PSR sort gate)” value was “low polyreactivity”.
For “QVQRVESGGGLVQAGGSLRLSCAASGLTFEYNAMGWYRQAPGKEREFVATISNGGITSYADSVKGRFTISRDNAKNTVYLQMNSLKPEDTGVYYCAASYADSPTTDQLWLEYDSWGQGTQVTVSS”, the “polyreactivity (PSR sort gate)” value was “low polyreactivity”.
With “QVQRVESGGGLVQAGGSLRLSCAASGLTFRYYAVGWYRQAPGKERELVAAITSNGGRTYYADSVKGRFTISRDNAKNTVYLQMNSLKPEDTAVYYCAAVYLYYGGVDYWGQGTQVTVSS” the “polyreactivity (PSR sort gate)” value was “high polyreactivity”.
For “QVQRVESGGGLVQAGGSLRLSCAASGLTFVYYAMGWYRQAPGKERELVAAISESGTSTYYADSVKGRFTISRDNAKNTVYLQMNSLKPEDTAVYYCAAKDSYYEMDYWGQGTQVTVSS”, the “polyreactivity (PSR sort gate)” value was “high polyreactivity”.
For “QVQRVESGGGLVQAGGSLRLSCAASGRIFQIYAMGWYRQAPGKERELVAAIRSGSNTNYADSVKGRFTISRDNAKNTVYLQMNSLKPEDTAVYYCNALYTSLRKDNYWGQGTQVTVST”, the “polyreactivity (PSR sort gate)” value was “low polyreactivity”.
For “QVQRVESGGGLVQAGGSLRLSCAASGRIFWYYAMGWYRQAPGTERQLVAAITSGGRTNFADSVKGRFTISSDNAKNSVYLQMNSLKPEDTAVYYCAAGYYNYLYRLRDQDFDYWGQGTQVTVSS”, the “polyreactivity (PSR sort gate)” value was “high polyreactivity”.
In the case of “QVQRVESGGGLVQAGGSLRLSCAASGRISSWNAMGWYRQAPGKERELVATISRRGGSTYYADSVKGRFTISRDNAKNTVYFQMNSLKQEDTAVYYCAKSSWTYGAYNYWGQGTQVTVSS”, the “polyreactivity (PSR sort gate)” value is reported as “high polyreactivity”.
With “QVQRVESGGGLVQAGGSLRLSCAASGRTFDGYAMGWYRQAPGKDRELVAAISKRGGSTYYADSVKGRFTISRDNAKNTVYLQMHSLKPEDTAVYYCNTRYFGDQTWVGGDSWGQGTQVTVSS” the “polyreactivity (PSR sort gate)” value was “high polyreactivity”.
In the case of “QVQRVESGGGLVQAGGSLRLSCAASGRTFRSYAMGWYRQAPGKERQFVAAISRSGASTRYADSVKGRFTISRDNAKNTVYFQMNSLKPEDTAVYYCAAVWPDVRGYDYWGQGTQVTVSS”, the “polyreactivity (PSR sort gate)” value is reported as “high polyreactivity”.
In the case of “QVQRVESGGGLVQAGGSLRLSCAASGSIFPIYAMGWYRQAPGKERELVAGITWSGGSTYYADSVKGRFTISRDNAKNTVYLQMNSLKPEDTAVYYCAAERWHPYDYWGQGTQVTVSS”, the “polyreactivity (PSR sort gate)” value is reported as “low polyreactivity”.
With “QVQRVESGGGLVQAGGSLRLSCAASGSIFPYYAMGWYRQAPGKETELVATITYRGGSTNYADSVKGRFTISRDNAKNTVYLQMNSLKPEDTAVYSCAAYGYVLASPYPYSFVKLGYCGQGTQVTVSS” the “polyreactivity (PSR sort gate)” value was “low polyreactivity”.
In the case of “QVQRVESGGGLVQAGGSLRLSCAASGSIFYSYAMGWYRQAPGKARELVATISWSGGRTNYADSVQGRFTISRDNAKNTVYLQMNSLKPEDTAVYYCAADIPPWGGDYWGQGTQVTVSS”, the “polyreactivity (PSR sort gate)” value is reported as “low polyreactivity”.
For “QVQRVESGGGLVQAGGSLRLSCAASGSIRGYAMGWYRQAPVKERELVAAISWRGGSTYYADSVKGRFTISRDNAKNTVYLQMNSLKPEDTAVYYCATKGYPHVSTWMDSWGQGTQVTVSS”, the “polyreactivity (PSR sort gate)” value was “low polyreactivity”.
For “QVQRVESGGGLVQAGGSLRLSCAASGSTFPPYGMGWSRQAPGKERELVAAITWRGGRTYYADSVKGRFTISRDNAKNTVYLQMNSLKPEDTAVYYCAASYGPRTGYATYRYASSRYNYWGQGTQVTVSS”, the “polyreactivity (PSR sort gate)” value was “high polyreactivity”.
With “QVQRVESGGGLVQAGGSLRLSCAASGSTFVNYVMGLYRQAPGKERELVAAISWSGGRTYYADSMKGRFTISRDNAKNTVYLQMNSLKPEDTAVYYCNAVYAGFLRVRYDYWGQGTQVTVSS” the “polyreactivity (PSR sort gate)” value was “high polyreactivity”.
In the case of “QVQRVESGGGLVQAGGSLRLSCAASGSTFYTNAMGWYRQAPGKERELVASITGGGSTYYADSVKGRFTISRDNAKNTVYLQMNSLKPEDTAVYYCAADNFGGGWEFDSWGQGTQVTVSS”, the “polyreactivity (PSR sort gate)” value is reported as “low polyreactivity”.
In the case of “QVQRVESGGGLVQAGGSLRLSCAASGSTLRYYAMGWYRQAPGKERELVAGIRYRGGSTSYADSVKGRFTISRDNAKNTVYLQMNSLKPEDTAVYYCATGIYRARTSSFRMGYWGQGTQVTVSS”, the “polyreactivity (PSR sort gate)” value is reported as “low polyreactivity”.
In the case of “QVQRVESGGGLVQAGGSLRLSCAASGTIFYHNAMGWYRQAPGIERELVAAITGSGGSTYYADSVKGRFTISRDNAKNTVYLQMNSLKPEDTAVYYCAADGYTKWRISWGYDYWGQGTQVTVCS”, the “polyreactivity (PSR sort gate)” value is reported as “low polyreactivity”.
For “QVQRVESGGGLVQAGGSLRLSCAGCGRIFHYYAMGWYRQAPGKEMELVAAITSSGGSTYYADSVKGRFTISRDHPKNTVYLQMNSLKPEDTAVYYCAAGLIVGRFLRYDYWGQGTQVTVSS”, the “polyreactivity (PSR sort gate)” value was “high polyreactivity”.
With “QVQRVESGGGLVQAGGSLRLSSAASGSTFQEYAMGWYSQAPGKERELVASIRWSGGRTYYADSVKGRFTISRDQAKNTVELQMKSLKPEDTAVYYCNKDYYITLHESDGNGGEMDYWGQGTQVTVSS” the “polyreactivity (PSR sort gate)” value was “low polyreactivity”.
For “QVQRVESGGGLVQAGVSLRLSCAASGITFVPYAMGWYRQAPGKERELVAAISSSGGSTYYADSVKGRFTISRDNAKNTVYLQMNSLKPEDTAVYFCNVPTHSYIGMDYWGQGTQVTVSS”, the “polyreactivity (PSR sort gate)” value was “low polyreactivity”.
With “QVQRVESGGGLVQEAGSLRLSCAASGSILGINVMGWYRHDHGKQRDLVAAISRSGGTTYYADSVKGRFTISRDNGKNTVYLQMNSLKPEDTAVYSCAVYNRPYKEYGYNYCGQGTQVTVSS” the “polyreactivity (PSR sort gate)” value was “high polyreactivity”.
For “QVQRVESGRGLVQAGGRLRLSCAASGFIFDRNVMGLYRQAPGNERELVAAISSSGGSTYYADSVKGRFTISRDNAKNTVYLQMNSLKPEDTAVYYCNRLAYRNMDYWGQGTQVTVSS”, the “polyreactivity (PSR sort gate)” value was “high polyreactivity”.
For “QVQRVESGRGLVQAGGSLRLRCAASGNIFPWSAMGWSRQAPGKERELVAAITSGGGSTYYGDSVKGRFTISRDNAKNTVYLQMNRLKPEDTAVYYCNAESAFVSYYSEDYDYWGQGTQVTVSS”, the “polyreactivity (PSR sort gate)” value was “low polyreactivity”.
For “QVQRVESGVGLVQAGGSLRLRCAASGSIFQSYAMGWYRHAPGKERELVAAITERGGSTYYADSVKGRFTISRDNAKNTVYLQMNSLKPEDTAVYYCAAKAVGLGKSWRGDDYWGQRTQVTVSS”, the “polyreactivity (PSR sort gate)” value was “low polyreactivity”.
With “QVQRVESRGGLVQAGGSLRLSCAASGSTFAVYALGWYRQAPGKERELVAAISQSGGSTNYADSVKGRFTISRDNAKNTVYLQMNSLKPEDTAVYYCNVDVSRSWAQPYTYDYWGQGTQVTVSS” the “polyreactivity (PSR sort gate)” value was “low polyreactivity”.
In the case of “QVQRVESWGGLVQAGGSLRLSCAASGFTFSDNAMGWYRQAPGKERELVAAISRRGGSTYYADSVKGRFTISRDNAKNTVYLQMNSLKPEVTAVYYCAAVRASSKVHTRTYDYWGQGTQVTVSS”, the “polyreactivity (PSR sort gate)” value is reported as “high polyreactivity”.
In the case of “QVQRVETGGGLVQAGGSLRLSSAASGSTLPGNTMGWYRQAPGKERELVAAISKSGGTTYYADSVKGRFTISRDNAKNTVYLQMNCLKPEDTAVYYCAAKPWVWVYARYGKHPSYDYWGQGTQVTVSS”, the “polyreactivity (PSR sort gate)” value is reported as “high polyreactivity”.
